Laboratory results: patent US20200140532A1 (Ablynx, published 2020)

T1: recombinant human Brevican (human, UniProt Q96GW7 23-911, limits assumed)
T1 sequence: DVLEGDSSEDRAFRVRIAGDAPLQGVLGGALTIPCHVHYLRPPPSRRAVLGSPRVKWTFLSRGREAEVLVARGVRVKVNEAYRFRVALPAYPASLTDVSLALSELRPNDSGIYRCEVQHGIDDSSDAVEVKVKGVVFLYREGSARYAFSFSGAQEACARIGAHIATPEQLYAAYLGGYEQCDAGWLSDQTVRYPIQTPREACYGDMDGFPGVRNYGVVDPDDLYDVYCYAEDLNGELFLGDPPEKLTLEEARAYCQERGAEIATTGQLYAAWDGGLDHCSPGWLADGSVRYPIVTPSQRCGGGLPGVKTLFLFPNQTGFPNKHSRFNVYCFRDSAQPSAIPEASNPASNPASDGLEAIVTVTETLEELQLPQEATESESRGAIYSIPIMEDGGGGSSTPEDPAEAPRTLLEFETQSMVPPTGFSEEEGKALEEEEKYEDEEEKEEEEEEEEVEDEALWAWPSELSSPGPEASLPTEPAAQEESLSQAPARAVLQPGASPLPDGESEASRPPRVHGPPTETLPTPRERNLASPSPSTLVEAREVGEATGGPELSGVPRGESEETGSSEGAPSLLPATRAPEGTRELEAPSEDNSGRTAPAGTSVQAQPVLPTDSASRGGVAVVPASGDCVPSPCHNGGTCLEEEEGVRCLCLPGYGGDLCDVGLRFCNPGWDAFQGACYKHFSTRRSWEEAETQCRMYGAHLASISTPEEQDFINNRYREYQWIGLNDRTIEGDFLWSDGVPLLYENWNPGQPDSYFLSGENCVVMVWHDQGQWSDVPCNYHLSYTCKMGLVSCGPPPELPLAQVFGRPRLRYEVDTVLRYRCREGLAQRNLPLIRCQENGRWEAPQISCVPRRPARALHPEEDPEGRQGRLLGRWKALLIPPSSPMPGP


Legend:
[1] = molecular target: T2, recombinant human Aggrecan G1-IGD-G2 (human, UniProt P16112 20-676); test: ELISA on recombinant G1-IGD-G2
T2 construct: Only the G1-IGD-G2 region was used (R&D Systems 1220-PG is named for the immunogen); also called Hu G1-IGD-G2

[2] = molecular target: T3, recombinant rat Aggrecan G1-IGD-G2 (rat, UniProt P07897 20-684, limits assumed); test: ELISA on recombinant G1-IGD-G2
T3 construct: also called Rat G1-IGD-G2

[3] = molecular target: T4, recombinant dog Aggrecan G1-IGD-G2 (dog, UniProt Q28343 20-693, limits assumed); test: ELISA on recombinant G1-IGD-G2
T4 construct: also called Dog G1-IGD-G2

[4] = molecular target: T5, recombinant bovine Aggrecan G1-IGD-G2 (bovine, UniProt P13608 20-684, limits assumed); test: ELISA on recombinant G1-IGD-G2
T5 construct: also called Bov G1-IGD-G2; Boy G1-IGD-G2

[5] = molecular target: T1, recombinant human Brevican; test: ELISA on recombinant human Brevican
[6] = molecular target: recombinant human Neurocan (human, UniProt O14594 23-1321, limits assumed); test: ELISA on recombinant human Neurocan
[7] = molecular target: T2, recombinant human Aggrecan G1-IGD-G2; test: SPR (ProteOn), off-rate only indicative
Experimental: (§1) SPR (ProteOn) experiments were carried out for the “monovalent” Aggrecan-ALB26 formats in order to determine off-rates.

[8] = molecular target: T3, recombinant rat Aggrecan G1-IGD-G2; test: SPR (ProteOn), off-rate only indicative
Experimental: as §1

[9] = molecular target: T4, recombinant dog Aggrecan G1-IGD-G2; test: SPR (ProteOn), off-rate only indicative
Experimental: as §1

[10] = molecular target: T5, recombinant bovine Aggrecan G1-IGD-G2; test: SPR (ProteOn), off-rate only indicative
Experimental: as §1

Binder	EC50 [1] [nM]	EC50 [2] [nM]	EC50 [3] [nM]	EC50 [4] [nM]	binding result [5]	binding result [6]	koff [7] [s⁻¹]	koff [8] [s⁻¹]	koff [9] [s⁻¹]	koff [10] [s⁻¹]	EC50 [6] [nM]
C01010054 (114F08-ALB26) (VHH, not shown: small tags and cut ends, also called C010100054) VHH: EVQLVESGGGLVQAGGSLRLSCAASGSTFIINVVRWYRRTPGKQRELVATISSGGNANYVDSVRGRFSISRDGAKNAVDLQMNGLKPEDTAVYYCNVPTTHYGGVYYGPYWGQGTQVTVSS	6	7.6	3	5.6	no binding	no binding	0.013	0.65	0.011	0.47	
C01010118 (ALB26-114F08-114F08) (VHH, not shown: small tags and cut ends, also called C010100118) VHH 1: EVQLVESGGGLVQAGGSLRLSCAASGSTFIINVVRWYRRTPGKQRELVATISSGGNANYVDSVRGRFSISRDGAKNAVDLQMNGLKPEDTAVYYCNVPTTHYGGVYYGPYWGQGTQVTVSS VHH 2: EVQLVESGGGLVQAGGSLRLSCAASGSTFIINVVRWYRRTPGKQRELVATISSGGNANYVDSVRGRFSISRDGAKNAVDLQMNGLKPEDTAVYYCNVPTTHYGGVYYGPYWGQGTQVTVSS	0.11	0.19	0.24	0.37							
C01010097 (608A05-ALB26) (VHH, not shown: small tags and cut ends) VHH: DVQLVESGGGLVQPGGSLRLSCAASGRTFSTYTMGWFRQAPGKEREFVAAISWSGGTTYYADSVKGRFTISRDNSKNTVYLQMNSLRPEDTAVYYCAARPRYYYYSLYSYDYWGQGTLVTVSS	0.24	0.33	25	0.28	no binding	no binding	0.0025	0.0015	0.083	0.0027	
C01010109 (ALB26-608A05-608A05) (VHH, not shown: small tags and cut ends) VHH 1: DVQLVESGGGLVQPGGSLRLSCAASGRTFSTYTMGWFRQAPGKEREFVAAISWSGGTTYYADSVKGRFTISRDNSKNTVYLQMNSLRPEDTAVYYCAARPRYYYYSLYSYDYWGQGTLVTVSS VHH 2: DVQLVESGGGLVQPGGSLRLSCAASGRTFSTYTMGWFRQAPGKEREFVAAISWSGGTTYYADSVKGRFTISRDNSKNTVYLQMNSLRPEDTAVYYCAARPRYYYYSLYSYDYWGQGTLVTVSS	0.1	0.095	0.33	0.077							
C01010046 (601E08-ALB26) (VHH, not shown: small tags and cut ends) VHH: DVQLVESGGGLVQPGGSLRLSCTASGRTFSSYAVGWFRQAPGKEREFVAAISRSGRSTYYADSVKGRFTISRDNSKNTVYLQMNSLRPEDTAVYYCAAGLSYYSPHAYYDYWGQGTLVTVSS	5.1	0.32	0.61	1.2	no binding	no binding	0.0034	0.00025	0.0071	0.0013	
C01010060 (606A07-ALB26) (VHH, not shown: small tags and cut ends) VHH: DVQLVESGGGLVQPGGSLRLSCVASGRTFSIYGMGWFRQAPGKEREFVAAINGGSRTYYADSVKGRFTISRDNSKNTVYLQMNSLRPEDTAVYYCAADRSGYGTSLDWWYDYWGQGTLVTVSS	12	8.4	6.9		no binding		0.021	0.021	0.038	0.027	
C01010113 (ALB26-606A07-606A07) (VHH, not shown: small tags and cut ends, also called AL326-606A07-606A07) VHH 1: DVQLVESGGGLVQPGGSLRLSCVASGRTFSIYGMGWFRQAPGKEREFVAAINGGSRTYYADSVKGRFTISRDNSKNTVYLQMNSLRPEDTAVYYCAADRSGYGTSLDWWYDYWGQGTLVTVSS VHH 2: DVQLVESGGGLVQPGGSLRLSCVASGRTFSIYGMGWFRQAPGKEREFVAAINGGSRTYYADSVKGRFTISRDNSKNTVYLQMNSLRPEDTAVYYCAADRSGYGTSLDWWYDYWGQGTLVTVSS	0.67	0.12	3								0.87
C01010094 (604F02-ALB26) (VHH, not shown: small tags and cut ends, also called C010100094) VHH: DVQLVESGGGLVQPGGSLRLSCAASGRTFSSYTMGWFRQAPGKEREFVAAISWSGGRTYYADSVKGRFTISRDNSKNTVYLQMNSLRPEDTAVYYCAAYRRRRASSNRGLWDYWGQGTLVTVSS	1.2	5.9	2.6	1.6	no binding	no binding	0.17	0.26	0.12	0.26	
